From patent US20160068595A1 (DEVELOPMEN CENTER FOR BIOTECHNOLOGY, published 2016)
Where a chain is given by its changes, count along the chain named. One block for each binder: values may come before it.

How the values were obtained:
[1] = target: T1, human IL-20 (interleukin-20), recombinant (human, UniProt Q9NYY1 25-176); experiment: binding kinetics of CDR mutants; method not named
T1 construct: Analyte in the BIAcore assay and stimulus (300 pM) in the BaF3 proliferation assay; also called hIL-20; human cytokine IL20
T1 sequence (looked up): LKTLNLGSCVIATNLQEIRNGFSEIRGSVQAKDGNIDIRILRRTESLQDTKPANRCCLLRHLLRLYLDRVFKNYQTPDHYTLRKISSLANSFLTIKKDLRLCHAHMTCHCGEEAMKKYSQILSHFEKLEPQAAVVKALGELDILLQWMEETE

[2] = target: T1, human IL-20 (interleukin-20), …; experiment: SPR, BIAcore T100; antibody captured on anti-human IgG CM5 chip, IL-20 as analyte, 1:1 model
Experimental: The human IL-20-binding kinetics of each purified anti-IL-20 antibody was estimated by surface plasmon resonance measurements using the BIAcore T100 biosensor system. The anti-IL-20 Ab was captured on an anti-human IgG immobilized CM5 sensor chip. The immobilized level of anti-human IgG was about 9,000-10,000 RU and the capture level of anti-IL-20 antibody was about 350-400 RU. Binding was carried out at constant flow rates of 30 μL/min of IL-20 at various dilutions in HEPES buffered saline (BIA certified) for 60 seconds. Dissociations were carried out by passing through HEPES buffer for 480 seconds. Regeneration of the surface was carried out by […] 10 mM Glycine pH 2.0/1.5 (50:50) for 40 seconds.
The IL-20 affinity of each of the anti-IL-20 antibodies were calculated from an affinity binding curve fit using the predefined model (1:1 binding) provided by Biacore T100 evaluation software 2.0.

Kd [1]: 0.437 nM | koff [1]: 0.000431 s⁻¹ | kon [1]: 988000 M⁻¹ s⁻¹
B1: FLB35 (HH12 variant) (antibody, V domains shown)
VH: EVQLQESGGGLVQPGGSLRLSCAASGFTFSDAWMDWVRQAPGKGLEWVGEIRSKANNYATYFAESVKGRFTISRDDSKNSLYLQMNSLKTEDTGVYYCTKLDLRYWFFDVWGQGTLVTVSS
VL: DIQMTQSPLSLSVTPGQPASISCKSSQSLLDYDGKTYLNWYQQKPGQSPQLLIYLVSKLDSGVPDRFSGSGSGTDFTLKISRVEAEDVGVYYCWQSTLFPWTFGQGTKVEIKR

Kd [1]: 0.803 nM | koff [1]: 0.000713 s⁻¹ | kon [1]: 888000 M⁻¹ s⁻¹
B2: FLB67 (HH12 variant) (antibody, V domains shown)
VH: B1 VH with D102S, R104Q
VL: B1 VL with L55Q, L98H

Kd [1]: 4.03 nM | koff [1]: 0.00283 s⁻¹ | kon [1]: 703000 M⁻¹ s⁻¹
B3: FLB35(S) (FLB35 with Ser at CDRL1 position 27E) (antibody, V domains shown)
VH: B1 VH
VL: B1 VL with Y32S

Kd [2]: 0.781 nM | koff [2]: 0.000711 s⁻¹ | kon [2]: 911000 M⁻¹ s⁻¹
B4: mouse anti-IL-20 monoclonal antibody 7E (antibody, V domains shown)
VH: ELKLEESGGGLVQPGGSMKLSCAASGFTFSDAWMDWVRQSPEKGLEWIAEIRSKANNYATYFAESVKGRFTISRDDSKSGVYLQMNNLRAEDTGIYFCTKLSLRYWFFDVWGAGTTVTVSS
VL: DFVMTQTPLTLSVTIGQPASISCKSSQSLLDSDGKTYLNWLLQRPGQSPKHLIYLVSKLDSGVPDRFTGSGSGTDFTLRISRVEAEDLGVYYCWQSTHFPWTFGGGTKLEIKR
notes: Mouse monoclonal antibody; The BIAcore method captures antibody on anti-human IgG; also called mAb 7E; mAb E7
